Results on 2 molecules are retold here after PMC4841555 (2016).

For this assay, the target named is Amyloid-beta(1-42) Aβ(1-42) (Homo sapiens, UniProt P05067). Description: BLI. Background: BLI is a label-free optical method that tracks binding on a fibre tip over time.

The Kd is the constant that tells how readily two partners part at equilibrium. A lower Kd goes with tighter binding. RPITRLRTHQNR [DB3] yielded a Kd of 75 µM. With RPITRLRTHQNRRPITRLRTHQNR [DB3DB3] the figure was 1 µM.
